The values that follow come from patent US20100151566A1.

The target in assay [1] is Isoform 121 of human VEGF-A (Peprotech) (human) (UniProt P15692). As to the kind of experiment: ELISA on coated antigen, 0.2 µg/mL, 9E10 detection. In general terms: ELISA stands for enzyme-linked immunosorbent assay.
The target is the same in assay [2]. Briefly: ELISA on coated antigen, 20 µg/mL, 9E10 detection.
Assay [3] shares this target. Briefly: ELISA on coated antigen, 2 µg/mL, 9E10 detection.
Assay [4] deals with Human VEGF-A treated with DTT (reduced) (human) (UniProt P15692). As to the kind of experiment: phage ELISA on DTT-reduced VEGF-A 121.
In assay [5] the target is Isoform 121 of human VEGF-A (Peprotech) (human) (UniProt P15692). Briefly: phage ELISA on native VEGF-A 121.
For assay [6] the target is unchanged. As to the kind of experiment: phage ELISA on coated VEGF-A 121, competitor KDR-Fc 2 µg/mL.
For assay [7] the target is unchanged. Briefly: phage ELISA on coated VEGF-A 121, without KDR-Fc.

Sequence of Isoform 121 of human VEGF-A (Peprotech) (human) (P15692 other isoform, or with tags, fused parts or gaps): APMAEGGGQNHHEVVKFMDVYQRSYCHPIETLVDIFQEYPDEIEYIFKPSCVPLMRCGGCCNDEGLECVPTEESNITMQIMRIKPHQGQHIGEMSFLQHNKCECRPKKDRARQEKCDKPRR
Sequence of Human VEGF-A treated with DTT (reduced) (human) (P15692 other isoform, or with tags, fused parts or gaps limits assumed): as the sequence (P15692 other isoform, or with tags, fused parts or gaps) above

B1: Fab 2H1-32 (Fab, V domains shown)
VH: QVQLVQSGAEVKKPGESLKISCKGSGYSFTSYWIGWVRQMPGKGLEWMGIIYPGDSDTRYSPSFQGQVTISADKSISTAYLQWSSLKASDTAMYYCARLVVRDTEIWGQGTMVTVSS
VL: QAVVTQEPSLTVSPGGTVTLTCASSIGAVTSGNYPNWFQQRPGQPPRALIYSTSNKHSWTPARFSGSLLGGKAALTLSGAQPEDEAEYYCLLSYSGARPVFGGGTKLTVLG
With B1, the values for the Optical Density (492 nm) in assay [1], in assay [2] and in assay [3] were 0.675 OD 492 nm, 1.02 OD 492 nm and 1.09 OD 492 nm, respectively.

B2: phage clone 2H1-F (scFv, not shown: large carriers; small tags and cut ends)
scFv: QQVQLVQSGAEVKKPGESLKISCKGSGYSFTSYWIGWVRQMPGKGLEWMGIIYPGDSDTRYSPSFQGQVTISADKSISTAYLQWSSLKASDTAMYYCARLVVRDTEIWGQGTMVTVSSAPQAKSSGSGSESKVDQAVVTQEPSLTVSPGGTVTLTCASSIGAVTSGNYPNWFQQRPGQPPRALIYSTSNKHSWTPARFSGSLLGGKAALTLSGAQPEDEAEYYCLLSYSGARPVFGGGTKLTVLG
As for B2, the Optical Density (492 nm) in assay [4] came out at 0.103 OD 492 nm; in assay [5], 1.25 OD 492 nm; in assay [6], 0.577 OD 492 nm; in assay [7], 1.15 OD 492 nm.
